Assay results as given in publication PMC5717063.

Tests used:
[1] = target: mammalian wild-type HSP60 purified from porcine liver (porcine)
[2] = target: mammalian wild-type HSP60 purified from porcine liver (porcine); assay: transmission electron microscopy; HSP60 alone, without nucleotide (Figure S1A)
[3] = target: mammalian wild-type HSP60 purified from porcine liver (porcine); assay: transmission electron microscopy; HSP60 with HSP10 and ATP; side views classified, over 100 molecules counted
[4] = target: mammalian wild-type HSP60 purified from porcine liver (porcine); assay: transmission electron microscopy; HSP60 alone with GTP; side views classified, over 100 molecules counted
[5] = target: mammalian wild-type HSP60 purified from porcine liver (porcine); assay: transmission electron microscopy; HSP60 alone with ATP; side views classified, over 100 molecules counted

Substance | refolding yield of chemically denatured rhodanese by HSP60/HSP10 in the presence of GTP (recovery of enzymatic activity, 60 min) [1] | stoichiometry N [2] | percent of HSP60 in double-ring structures [3] | percent of HSP60 as double-ring [4] | percent of HSP60 as double-ring (HSP60 14) [5] | stoichiometry N [5]
mammalian wild-type HSP10 purified from porcine liver (from UniProt F1SMZ6 1-102) (natural protein) | 40% | – | – | – | – | –
mammalian wild-type HSP60 purified from porcine liver (natural protein) | – | 7 | 70% | 20% | 40% | 14
